Two molecules from PMC4238996 (PLoS Neglected Tropical Diseases, 2014) can be followed below.

In this experiment the target is T1, GST-tagged MupFHA (Mup018c, residues 1-362), wild type (M. ulcerans Agy99 (plasmid pMUM001), UniProt Q6MZ86 1-362).
T1 construct: also called MupFHA^wt; GST-MupFHA
T1 sequence: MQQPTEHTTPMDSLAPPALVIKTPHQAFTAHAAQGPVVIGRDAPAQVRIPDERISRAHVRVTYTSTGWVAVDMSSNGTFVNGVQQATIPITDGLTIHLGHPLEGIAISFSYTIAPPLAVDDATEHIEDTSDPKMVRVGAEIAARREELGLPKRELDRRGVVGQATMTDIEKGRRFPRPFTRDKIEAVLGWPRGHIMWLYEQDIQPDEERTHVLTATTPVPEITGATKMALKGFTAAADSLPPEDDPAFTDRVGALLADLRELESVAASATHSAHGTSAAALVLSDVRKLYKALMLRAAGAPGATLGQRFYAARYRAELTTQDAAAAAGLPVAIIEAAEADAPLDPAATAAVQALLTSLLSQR
Kind of experiment: ELISA. Particulars: both partners purified. For orientation: ELISA stands for enzyme-linked immunosorbent assay.

B1: MBP-tagged MupDivIVA S43/45/49A triple mutant (natural protein)
chain: MSHSELLDPALPKSPFGKQGYRYDDVDVFLRLIADELQGSDLAEADIHAITFRCAAPLTRGYDTESVDRFLDRIAETIARGHGDEGQ
For the molecule B1, the binding result is reported as “binds”.

B2: MBP-tagged MupDivIVA-P (Mup012c residues 1-87, phosphorylated by co-expression with PknQ) (natural protein, M. ulcerans Agy99 (plasmid pMUM001), UniProt Q6MZ92 1-87, looked up)
chain: MSHSELLDPALPKSPFGKQGYRYDDVDVFLRLIADELQGSDLSESDIHSITFRCAAPLTRGYDTESVDRFLDRIAETIARGHGDEGQ
notes: also called phosphorylated MupDivIVA
For the molecule B2, the binding result is on record as “binds”.
